For the test, the target named is Ostreolysin A6 (Pleurotus ostreatus) (UniProt P83467).
Sequence of UniProt P83467 (P83467 whole entry): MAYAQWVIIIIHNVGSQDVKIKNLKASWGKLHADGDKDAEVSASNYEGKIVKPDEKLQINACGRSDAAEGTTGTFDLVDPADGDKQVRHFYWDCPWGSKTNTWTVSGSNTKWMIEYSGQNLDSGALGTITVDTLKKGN

On to Δ48EryB (erylysin B) (natural protein), for which the haemolysis of bovine erythrocytes, aegerolysin/MACPF-protein 12.5/1, 25 °C; against OlyA6/PlyB turned out to be 90 % lower.

The values are drawn from paper PMC8310357.
